Test results reported in the supplement of paper PMC6757056.
± gives the standard deviation of the averaged measurements.

B1: library; a variant is named by its letters at N, in order (parent)
chain: GCUGUCACCGGUGCUUGGUACGUUAUAUUCAGCCGGUCUGAUGAGUCUNNNNNNAGACGAAACAGC

Key:
(6R,S)-folinic acid [1] = variants of: B1; assay: FACS-Seq fitted mean relative fluorescence mCherry/BFP without ligand (log10 relative fluorescence); HEK293T overexpressing SLC46A1; higher = higher reporter protein expression; conditions: without (6R,S)-folinic acid; ligand present: no
Experimental: (§1)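 Hammerhead (sTRSV) ribozyme switch libraries with a ligand aptamer grafted on stem I and a randomized N4-6 loop II, cloned into the 3' UTR of mCherry and transiently transfected into HEK293T cells; RNA-Seq 72 h post transfection with ligand added 1 h before transfection; RNA read count / plasmid DNA read count normalized to the non-cleaving sTRSVctl (x100), log10; sequences with >100 DNA reads. FACS-Seq: lentiviral library sorted into 6 bins after 48 h ligand, log-normal fit mean of mCherry/BFP scaled to controls. Printed sequences are partial switch sequences.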

(6R,S)-folinic acid [2] = variants of: B1; assay: normalized RNA/DNA level without ligand (relative to sTRSVctl = 100) (log10 (% of sTRSVctl)); HEK293T overexpressing SLC46A1; higher = less ribozyme self-cleavage, higher mRNA level; conditions: without (6R,S)-folinic acid; ligand present: no
Experimental: as §1

(6R,S)-folinic acid [3] = variants of: B1; assay: FACS-Seq fitted mean relative fluorescence mCherry/BFP with ligand (log10 relative fluorescence); HEK293T overexpressing SLC46A1; ligand concentration (+) FACS-Seq: 6 mM; higher = higher reporter protein expression; conditions: with (6R,S)-folinic acid; ligand present: yes
Experimental: as §1

(6R,S)-folinic acid [4] = variants of: B1; assay: normalized RNA/DNA level with ligand (relative to sTRSVctl = 100) (log10 (% of sTRSVctl)); HEK293T overexpressing SLC46A1; ligand concentration (+) RNA-Seq: 6 mM; higher = less ribozyme self-cleavage, higher mRNA level; conditions: with (6R,S)-folinic acid; ligand present: yes
Experimental: as §1

| Variant | FACS-Seq fitted mean (log10) ((6R,S)-folinic acid [1]) | normalized RNA/DNA level without ligand (log10) ((6R,S)-folinic acid [2]) | FACS-Seq fitted mean (log10) ((6R,S)-folinic acid [3]) | normalized RNA/DNA level with ligand (log10) ((6R,S)-folinic acid [4]) |
| --- | --- | --- | --- | --- |
| GACCAA | 0.358 ± 0.039 | 2.0328 ± 0.00084 | 0.42 ± 0.074 | 2.03 ± 0.043 |
| AAGGAA | 0.513 ± 0.14 | 1.937 ± 0.01 | 0.429 ± 0.1 | 2 ± 0.023 |
| AAGGAG | 0.211 ± 0.081 | 1.789 ± 0.017 | 0.263 ± 0.14 | 2 ± 0.046 |
| AAGGAU | 0.466 ± 0.0051 | 1.917 ± 0.0072 | 0.53 ± 0.073 | 1.966 ± 0.013 |
| GACGUG | 0.598 ± 0.2 | 1.946 ± 0.019 | 0.734 ± 0.17 | 2.01 ± 0.029 |
| GACGUA | 0.251 ± 0.023 | 1.9997 ± 0.00027 | 0.131 ± 0.26 | 2.03 ± 0.038 |
| GACGAA | 0.551 ± 0.09 | 1.963 ± 0.0039 | 0.69 ± 0.21 | 2 ± 0.04 |
| GACGAU | 0.612 ± 0.086 | 1.954 ± 0.0091 | 0.648 ± 0.068 | 2 ± 0.037 |
| GACGAG | -0.054 ± 0.034 | 1.907 ± 0.0022 | 0.319 ± 0.29 | 2.01 ± 0.037 |
| AAGAUC | 0.442 ± 0.061 | 2.04 ± 0.0043 | 0.504 ± 0.1 | 2.02 ± 0.029 |
| AAGAUU | 0.318 ± 0.11 | 2.007 ± 0.0072 | 0.312 ± 0.032 | 2.02 ± 0.022 |
| AAGAUA | -0.141 ± 0.082 | 1.959 ± 0.0077 | -0.581 ± 0.18 | 1.994 ± 0.015 |
| AAGAUG | 0.3831 ± 0.00047 | 1.8871 ± 0.00048 | 0.235 ± 0.29 | 1.997 ± 0.018 |
| AAGACG | 0.519 ± 0.038 | 1.92 ± 0.0073 | 0.622 ± 0.38 | 2 ± 0.058 |
| AAGACA | 0.531 ± 0.012 | 1.985 ± 0.0083 | 0.754 ± 0.13 | 2.01 ± 0.023 |
| GACAGG | 0.464 ± 0.089 | 1.959 ± 0.01 | 0.498 ± 0.27 | 2.02 ± 0.042 |
| GACAGA | 0.403 ± 0.0081 | 1.994 ± 0.017 | 0.442 ± 0.15 | 2.01 ± 0.035 |
| GACGCC | 0.287 ± 0.023 | 2.043 ± 0.0061 | 0.0736 ± 0.3 | 2.03 ± 0.028 |

| Variant | FACS-Seq fitted mean (log10) ((6R,S)-folinic acid [1]) | normalized RNA/DNA level without ligand (log10) ((6R,S)-folinic acid [2]) | FACS-Seq fitted mean (log10) ((6R,S)-folinic acid [3]) | normalized RNA/DNA level with ligand (log10) ((6R,S)-folinic acid [4]) |
| --- | --- | --- | --- | --- |
| UAGCAU | 0.36 ± 0.07 | 1.942 ± 0.0083 | 0.328 ± 0.2 | 2 ± 0.042 |
| UAGCAG | 0.207 ± 0.14 | 1.755 ± 0.0028 | 0.401 ± 0.18 | 1.957 ± 0.019 |
| CACUGG | 0.801 ± 0.11 | 1.962 ± 0.013 | 0.687 ± 0.052 | 2.03 ± 0.021 |
| CACUGA | 0.463 ± 0.077 | 2.012 ± 0.0079 | 0.325 ± 0.16 | 2.04 ± 0.028 |
| AAGAAC | 0.369 ± 0.066 | 1.985 ± 0.012 | 0.624 ± 0.1 | 2 ± 0.038 |
| AAGAAA | 0.107 ± 0.0018 | 1.935 ± 0.0037 | 0.0952 ± 0.071 | 1.99 ± 0.021 |
| AAGAAG | 0.22 ± 0.028 | 1.8593 ± 0.00099 | 0.315 ± 0.053 | 2 ± 0.052 |
| UACGUG | 0.0454 ± 0.021 | 1.7 ± 0.018 | 0.518 ± 0.16 | 1.946 ± 0.011 |
| GACUAU | 0.375 ± 0.083 | 1.9961 ± 0.00078 | 0.557 ± 0.24 | 2.002 ± 0.0044 |
| GACUAG | 0.271 ± 0.048 | 1.934 ± 0.019 | 0.493 ± 0.089 | 2 ± 0.033 |
| GACUAC | 0.495 ± 0.024 | 2.041 ± 0.011 | 0.191 ± 0.19 | 2.066 ± 0.016 |
| GAGCUA | 0.516 ± 0.2 | 2.0209 ± 0.0014 | 0.415 ± 0.15 | 2.04 ± 0.035 |
| GAGCAU | 0.407 ± 0.06 | 1.979 ± 0.015 | 0.546 ± 0.41 | 2.016 ± 0.015 |
| GAGCAG | 0.523 ± 0.06 | 1.96 ± 0.004 | 0.688 ± 0.3 | 2.02 ± 0.058 |
| GAGCAC | 0.00982 ± 0.061 | 2.002 ± 0.02 | -0.159 ± 0.38 | 2.042 ± 0.0057 |
| AACAGA | 0.344 ± 0.11 | 1.964 ± 0.01 | 0.425 ± 0.04 | 2 ± 0.028 |
| AACAGU | -0.296 ± 0.34 | 1.94 ± 0.018 | 0.0957 ± 0.15 | 2.001 ± 0.0087 |
